The target in experiment [1] is T1, human CDH6 (Homo sapiens, UniProt P55285).
T1 construct: expressed in transfected cells; host or cells: 293α cells (HEK293 stably expressing integrin αv and β3)
T1 sequence (P55285 19-790): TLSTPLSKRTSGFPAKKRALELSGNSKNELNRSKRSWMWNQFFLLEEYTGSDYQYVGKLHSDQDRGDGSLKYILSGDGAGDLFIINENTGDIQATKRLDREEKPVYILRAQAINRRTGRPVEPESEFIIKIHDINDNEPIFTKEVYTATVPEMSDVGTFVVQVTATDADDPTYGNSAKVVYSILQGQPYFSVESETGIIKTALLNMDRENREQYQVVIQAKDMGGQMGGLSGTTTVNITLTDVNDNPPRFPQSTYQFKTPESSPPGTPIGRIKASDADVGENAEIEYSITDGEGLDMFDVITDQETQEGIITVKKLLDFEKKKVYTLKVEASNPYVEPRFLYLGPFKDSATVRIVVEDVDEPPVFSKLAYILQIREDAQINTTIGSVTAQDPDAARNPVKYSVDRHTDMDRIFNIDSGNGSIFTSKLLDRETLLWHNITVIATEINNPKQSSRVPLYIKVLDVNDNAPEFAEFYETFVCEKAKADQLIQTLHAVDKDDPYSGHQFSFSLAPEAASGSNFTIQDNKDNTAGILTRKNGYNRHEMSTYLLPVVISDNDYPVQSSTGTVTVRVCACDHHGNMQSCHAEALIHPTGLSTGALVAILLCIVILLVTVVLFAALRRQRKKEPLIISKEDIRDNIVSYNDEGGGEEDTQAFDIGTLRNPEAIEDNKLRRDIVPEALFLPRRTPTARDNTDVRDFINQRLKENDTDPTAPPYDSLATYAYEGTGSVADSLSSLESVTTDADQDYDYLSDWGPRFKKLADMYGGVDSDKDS
As to the kind of experiment: Hybridoma screening by Cell-ELISA. In kind it is binding. As to conditions: hybridoma culture supernatant; 293α cells transfected with pcDNA3.1-hCDH6. On the procedure: (§1) 293α cells (a stable expression cell line derived from HEK293 cells expressing integrin αv and integrin β3) were prepared at 5×10^5 cells/mL in DMEM medium supplemented with 10% FBS. In accordance with transduction procedures for using Lipofectamine 2000 (Thermo Fisher Scientific Inc.), DNA of pcDNA3.1-hCDH6 or pcDNA3.1-cynoCDH6, or pcDNA3.1 as a negative control was introduced into the 293α cells, and the cells were dispensed in an amount of 100 μL/well onto a 96-well plate (Corning Inc.). Thereafter, the cells were cultured under conditions of 37° C. and 5% CO2 in DMEM medium supplemented with 10% FBS for 24 to 27 hours. The obtained transfected cells were used for Cell-ELISA in an adhesive state.
(§2) The culture supernatant of the 293α cells transfected with the expression vector prepared in Reference Example 1)-4-1 was removed, and the culture supernatant from each hybridoma was then added to the 293α cells transfected with pcDNA3.1-hCDH6 or pcDNA3.1-cynoCDH6, or pcDNA3.1. The cells were left standing at 4° C. for 1 hour. The cells in the wells were washed once with PBS (+) supplemented with 5% FBS, and thereafter, Anti-Rat IgG-Peroxidase antibody produced in rabbit (Sigma-Aldrich Co. LLC) that had been 500-fold diluted with PBS (+) supplemented with 5% FBS was added to the wells. The cells were left standing at 4° C. for 1 hour. The cells in the wells were washed three times with PBS (+) supplemented with 5% FBS, and thereafter, OPD coloring solution (which had been prepared by dissolving o-phenylenediamine dihydrochloride (Wako Pure Chemical Industries, Ltd.) and H2O2 in an OPD solution (0.05 M trisodium citrate, 0.1 M disodium hydrogen phosphate 12-water; pH 4.5), so that the substances became 0.4 mg/ml and 0.6% (v/v), respectively, was added in an amount of 100 μL/well to the wells. A coloring reaction was carried out with occasional stirring. Thereafter, 1 M HCl was added to the plate (100 μL/well) to terminate the coloring reaction, followed by measurement of the absorbance at 490 nm using a plate reader (ENVISION: PerkinElmer, Inc.).
The heavy chain subclass and the light chain type of the antibody were determined using a RAT MONOCLONAL ANTIBODY ISOTYPING TEST KIT (DS Pharma Biomedical Co., Ltd.).

The test system of experiment [2] is cynomolgus monkey CDH6. As to the kind of experiment: Hybridoma screening by Cell-ELISA and flow cytometry. The format is binding. As to conditions: hybridoma culture supernatant; cells transfected with pcDNA3.1-cynoCDH6. On the procedure: as §1, §2
Chain of cynomolgus monkey CDH6 (as listed by the source): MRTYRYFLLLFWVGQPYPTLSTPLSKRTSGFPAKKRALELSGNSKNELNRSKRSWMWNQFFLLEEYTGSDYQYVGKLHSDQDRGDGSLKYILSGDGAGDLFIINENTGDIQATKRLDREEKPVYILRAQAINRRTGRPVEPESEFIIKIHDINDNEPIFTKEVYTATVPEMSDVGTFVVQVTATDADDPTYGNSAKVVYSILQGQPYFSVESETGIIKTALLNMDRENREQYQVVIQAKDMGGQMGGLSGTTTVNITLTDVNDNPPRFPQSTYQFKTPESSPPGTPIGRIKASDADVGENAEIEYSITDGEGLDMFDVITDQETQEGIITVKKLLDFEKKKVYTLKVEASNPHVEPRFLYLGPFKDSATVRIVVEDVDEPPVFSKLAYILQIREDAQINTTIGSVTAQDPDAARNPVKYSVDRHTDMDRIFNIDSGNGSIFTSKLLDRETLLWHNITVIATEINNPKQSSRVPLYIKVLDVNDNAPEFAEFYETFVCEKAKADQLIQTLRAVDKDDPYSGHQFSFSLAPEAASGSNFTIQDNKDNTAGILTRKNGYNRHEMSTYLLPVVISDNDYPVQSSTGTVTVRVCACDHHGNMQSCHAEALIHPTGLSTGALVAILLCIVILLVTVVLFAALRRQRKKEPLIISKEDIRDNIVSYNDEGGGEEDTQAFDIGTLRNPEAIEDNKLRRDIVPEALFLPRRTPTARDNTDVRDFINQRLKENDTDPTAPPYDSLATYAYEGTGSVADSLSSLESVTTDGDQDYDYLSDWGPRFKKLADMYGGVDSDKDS
293T cells were seeded in a 225-cm^2 flask (Sumitomo Bakelite Co., Ltd.) at 5×10^4 cells/cm^2, and the cells were then cultured overnight under conditions of 37° C. and 5% CO2 in DMEM medium supplemented with 10% FBS. pcDNA3.1-cynoCDH6 or pcDNA3.1 as a negative control was introduced into the 293T cells using Lipofectamine 2000, and the cells were further cultured overnight under conditions of 37° C. and 5% CO2. […]
The binding specificity to cynomolgus monkey CDH6 of an antibody produced from the human CDH6- and cynomolgus monkey CDH6-binding antibody-producing hybridomas that had been selected by Cell-ELISA in Reference Example 1)-4 was further confirmed by flow cytometry. […] The data was analyzed using FlowJo (Tree Star, Inc.). […]
A general note: An ELISA detects its analyte on a solid surface through an enzyme-linked reagent.

B1: rG055: rat anti-human CDH6 monoclonal antibody produced by hybridoma rG055; variable regions SEQ ID NO: 20 and 25 (antibody, listed as Rattus norvegicus, V domains shown)
VL: DVQMTHSPSYLAASPGESVSISCKTSKNISNYLVWYQQKPGEAYKLLIYSGSTLQSGTPSRFSGSGSGTDFTLTIRSLEPEDFGLYFCQQYYEKPFTFGSGTKLEIKRA
VH: EVQLQESGPGLVRPSQSLSLSCSVTDYSITSNYWGWIRRFPGNKMEWMGYITYSGYTSYNPSLQSRISITRDTSKNQFFLQLNSVTAEDTATYYCARSINHGGYSYVVDAWGPGASVTVSS
With B1, the “binding to human CDH6” value in experiment [1] is “bind specifically and strongly”. Further, the “binding to monkey CDH6” value in experiment [2] is “bind specifically and strongly”.

B2: rG061: rat anti-human CDH6 monoclonal antibody produced by hybridoma rG061; variable regions SEQ ID NO: 40 and 45 (antibody, listed as Rattus norvegicus, V domains shown)
VL: DVQMTQSPSYLAASPGESVSISCKATKSISNYLAWYQQKPGEAYKVLIYSGSTLQSGTPSRFSGSGSGTDFTLTIRSLEPEDFGLYSCQQYYEKPLTFGSGTKLEIKRA
VH: EVQLQESGPGLVKPSQSLSLTCSVTGYSITTYYWGWIRKFPGNKMEWMGYISYSGRTSYNPSLKSRMSITRDASKNQFFLQLNSVTTDDTATYYCARSPINHGGYWYFDFWGPGTMVTVSS
Consider B2, for which the “binding to human CDH6” value in experiment [1] is “bind specifically and strongly”. Moreover, the “binding to monkey CDH6” value in experiment [2] was “bind specifically and strongly”.

B3: rG056: rat anti-human CDH6 monoclonal antibody produced by hybridoma rG056; variable regions SEQ ID NO: 30 and 35 (antibody, listed as Rattus norvegicus, V domains shown)
VL: DVQMTQSPSSLAASPGESVSISCRATKSIGIYLAWYQQKPGKTFKLLIYSGSTLQSGTPSRFSGSGSGTDFTLTIRSLEPEDFGLYFCQQFYENPFTFGSGTKLEIRRA
VH: EVQLQESGPGLVKPSQSLSLTCSVTDYSITTYFWGWIRKFPGNKMEWMGYMSYRGGTSYNPSLKSRISITRDTSKNQFFLQLNSVTTEDTATYYCARCPNYGGHSLVFDYWGQGVMVTVSS
Consider B3, for which the “binding to human CDH6” value in experiment [1] is “bind specifically and strongly”. Besides, the “binding to monkey CDH6” value in experiment [2] was “bind specifically and strongly”.

B4: rG019: rat anti-human CDH6 monoclonal antibody produced by hybridoma rG019; variable regions SEQ ID NO: 10 and 15 (antibody, listed as Rattus norvegicus, V domains shown)
VL: DIQMTQSPSLLSASVGDRVTLNCKASQNIYKNLAWYQQKLGEGPKLLIYDANTLQTGIPSRFSGSGSGSDFTLTISSLQPEDVATYFCQQYYSGWAFGGVTNLELKRA
VH: QVQLQQSGAELVKPGSSVKISCKASGYTFTRNFMHWIKQQPGNGLEWIGWIYCGDGETEYNQKFNGKATLTADRSSSTAYMELSRLTSEDSAVYFCARGVYGGFAGGYFDFWGQGVMVTVSS
As for B4, in experiment [1], the “binding to human CDH6” value is “bind specifically and strongly”. Further, in experiment [2], the “binding to monkey CDH6” value was “bind specifically and strongly”.

The record behind these values is US20240390512A1, “METHODS OF TREATING CHEMOTHERAPY-RESISTANT CANCER WITH AN ANTIBODY-DRUG CONJUGATE” (DAIICHI SANKYO COMPANY, LIMITED, priority 2021, published 2024).
